Laboratory results from patent US20190160028A1.

Biological target: Nluc-NS2B (49-66) (named as Nluc-E66stop) (firefly; Dengue virus serotype 2 (DENV2)) [luciferase: P08659]
Sequence (P08659 whole entry): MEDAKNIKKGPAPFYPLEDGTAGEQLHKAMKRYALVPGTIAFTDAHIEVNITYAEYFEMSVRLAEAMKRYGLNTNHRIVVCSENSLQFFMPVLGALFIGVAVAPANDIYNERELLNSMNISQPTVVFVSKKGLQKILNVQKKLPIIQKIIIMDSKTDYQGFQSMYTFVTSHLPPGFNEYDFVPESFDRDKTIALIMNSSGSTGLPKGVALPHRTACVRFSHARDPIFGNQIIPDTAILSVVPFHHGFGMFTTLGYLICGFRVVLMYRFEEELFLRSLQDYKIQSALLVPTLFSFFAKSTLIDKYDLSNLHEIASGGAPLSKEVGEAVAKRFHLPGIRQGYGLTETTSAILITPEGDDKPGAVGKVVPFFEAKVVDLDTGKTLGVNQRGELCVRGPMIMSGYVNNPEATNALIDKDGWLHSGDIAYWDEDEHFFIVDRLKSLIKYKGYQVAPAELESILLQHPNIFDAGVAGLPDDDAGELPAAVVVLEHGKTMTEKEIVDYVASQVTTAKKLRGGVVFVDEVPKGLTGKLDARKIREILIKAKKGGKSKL

His-tagged maltose-binding protein (MBP) fused to DENV2 NS3 protein (His-MBP-NS3) (from UniProt P14337 1476-1654) (enzyme)
affinity: 2.5 µM
